This data set can be described thus: soluble on expression in E. coli; label from the status in PepcDB or PDB records.
Regarding “MNLDKVNKYIKDFEKTIKKPKINFDKSKFYVGVDLGTANIVITILDKDGKPVAGVTQRSRVVRDGIVVDFMEAIEIVRKLKENLEKKLGIEITEGYTAIPPGVEQGSVRAIVNVIESAGIDVLKVVDEPTAASYVLGITDGVVVDLGGGTTGISILEKGKVIFVADEPTGGTHMTLVLAGSYGIDFETAEDIKTDKKKEKEVFVQITPVLQKMAAIVKKYIKDYKVKDVFLVGGACSFDGSESIFERELGLNIYKPYMPVYITPLGIALAGMKSLEHHHHHH”, the “soluble on expression in E. coli” value is recorded as “soluble”.
Next, “MNLDQAEITALTKRFETPFYLYDGDFIEAHYRQLRSRTNPAIQFYLSLKANNNIHLAKLFRQWGLGVEVASAGELALARHAGFSAENIIFSGPGKKRSELEIAVQSGIYCIIAESVEELFYIEELAEKENKTARVAIRINPDKSFGSTAIKMGGVPRQFGMDESMLDAVMDAVRSLQFTKFIGIHVYTGTQNLNTDSIIESMKYTVDLGRNIYERYGIVCECINLGGGFGVPYFSHEKALDIGKITRTVSDYVQEARDTRFPQTTFIIESGRYLLAQAAVYVTEVLYRKASKGEVFVIVDGGMHHHAASTFRGRSMRSNYPMEYIPVREDSGRRELEKVTIAGPLCTPEDCLGKDVHVPALYPGDLVCVLNSGAYGLSFSPVHFLGHPTPIEILKRNGSYELIRRKGTADDIVATQLQTESNLLFVDK”: “soluble”.
Next, “MNLDQELAEIRASSSDHTNYFYSSERREHMFDKVLTPSDVGKLNRLVIPKQHAENFFPLEDNQNGTVLDFQDKNGKMWRFRYSYWNSSQSYVMTKGWSRFVKEKKLFAGDTVSFYRGYIPDDNAQPERRRKIMFIDWRPRAEINFVHNINNHNFVFGSPTYPTARFYPVTPEYSMPYRSFPPFYQNQFQEREYLGYGYGRVVNGNGVRYYAGSPLDQHHQWNLGRSEPLVYDSVPVFPAGRVPPSAPPQPSTTKKLRLFGVDVEESSSSGDTRGEMGVAGYSSSSPVVIRDDDQSFWRSPRGEMASSSSAMQLSDDEEYKRKGKSLEL”: “soluble”; “MNLIGKWIVGVGESVLNRMPLVRPIYKSIKQLFESVLKEHSNSFKKVGLIEFPSSGTWAMVFVSSEVKGELAHRFNEMGQQMVAVFLPPTPVPTAGFLLFVPKDKIVMLDMTPEDAAKLLISGGLVAPDFTPPKVIAPVLEHHHHHH”: “soluble”; “MNLLEKTRKINAMLQKAAGRPVNFKEMAETLCEVIEANVFVVSRRGKLLGFAIKQSIENERMKRMLEERQFPEEYTKNLFNITETSPNIDINSEYTAFPVENRDLFKTGLTTIVPINGGGERLGTLILSRLDREFDNDDLILAEYGATVVGMEILREKAEEIEEEARSKAVVQMAISSLSYSELEAIEHIFEELDGTEGLLVASKIADRVGITRSVIVNALRKLESAGVIESRSLGMKGTYIKVLNDKFLSELEKLKSS”: “not soluble”.
The same measure for “MNLLLFFLLSTVSVFAVVSGTVEETARDVIDALAHAPFEEWSSVFIETNDRIRAEVIPSTLFIPNSSANGSDDRHKLASYHIVPQRLEFADLLLKPSRSRLPTLLNGSSILVTNNSATSFSIDGVLIIELDIYVDSFIAIHRIAYPLDYTTYGGGSKLISKWPLFTFMLVTVVWFI”: “soluble”; for “MNLNYTIASQVNPHVVPFMQSDASRYRKDILSWPQRILRRQGKVISLGIMDFTRERLGNVPPVRRLLDHGYGIVGQRYYGDVNIIAPFNLRQYAYMLQNPRPHLFKLLQQQGERATLEHHHHHH”: “soluble”.
For “MNLSIFGLKNIPYLKEGDSIEKLIEESIKTSEFFIEDNDVLCIASKVVSIAEGQVMSLNEIQVSDVAKEIHRNIPRKDPRIIEIMLNLVNRDLSRLDIKKNYIGCRLENGLKLTSGGIDRKSVDEVFLLPNNPDASAKRISEYLKKSLGKNVAVVITDSDGREDKRGATQVAIGIYGIHPLRKTEVIDSQGETIKFQEETLCDMIAACAGLVMGQRGTGIPAVLIRGLDYKWSENTSIKEALNE”, the “soluble on expression in E. coli” value is recorded as “not soluble”.
Turning to “MNMLKKSLTALVLLGGLGAPVVAHATPAAAEAASEVQVAWVDGKVRISWTEAAGIPNTVSLELPGKPRKTLGTTTAAGDNQLVVEPSALEPTNDPASVAKIVVSDPSTAEARSAGFDRYVRGATPLAPVMTGTGVLNWQFPADTAVDSTPNDPLDVDAPVQFVPKLTLGVTPGTTDECKTVVLPATTAPYGSVPKQISPYALELLNVSEWGQSKLAGVRVRSSSTAFSTPASTGYGTRITMTGSILLQTLQNPAAGNCEDVTDTAALGGHELALQAREDGGAWYAVGVSKTDAQGKYQFVVSNPGARQYRAVLKTAAASGAAHYQSISAERSVRATPQVIDASFADDTITLGQQPNARVTVAPYGSHQVALQFKNASGQWQGLMYRTLSAGRAESGPFAFSRLGDTQFRWWVASSTSTTGLPVDAGYTYPFTLHVS”, the “soluble on expression in E. coli” value is recorded as “not soluble”.
Regarding “MNNLMVIDGIEVRRDAYGRYSLNDLHRAAGSLDKHKPAFWLRNEQTERLISELQICNSVNIEPVNVIRGGNNQGTYVCKELVYAYAMWISPSFHLKVIRTFDMV”, the “soluble on expression in E. coli” value is listed as “not soluble”.
With “MNNNDIEYNAPSEIKYIDVVNTYDLEEEASKVVPHGGFNYIAGASGDEWTKRANDRAWKHKLLYPRLAQDVEAPDTSTEILGHKIKAPFIMAPIAAHGLAHTTKEAGTARAVSEFGTIMSISAYSGATFEEISEGLNGGPRWFQIYMAKDDQQNRDILDEAKSDGATAIILTADSTVSGNRDRDVKNKFVYPFGMPIVQRYLRGTAEGMSLNNIYGASKQKISPRDIEEIAGHSGLPVFVKGIQHPEDADMAIKRGASGIWVSNHGARQLYEAPGSFDTLPAIAERVNKRVPIVFDSGVRRGEHVAKALASGADVVALGRPVLFGLALGGWQGAYSVLDYFQKDLTRVMQLTGSQNVEDLKGLDLFDNPYGYEY”, the “soluble on expression in E. coli” value is recorded as “soluble”.
Consider “MNNQYLQFVREQLIIATADLSGATKGQLEAWQENAMFDTGRYRRKKIRYRDEVTGKMITRDNPPIPGKQSLAKGTSIPLVSPVEFSTSSWRRAVLSLEEHYKAWLLWCYSGSICWEYQIAITQWAWNEFNAQSGTRKIAGKTQERLKKLIWLAAQAVKAELFGGEGYEYQELALLAGVTTKNWSKTFTRHWVAMKHIFHRLDSEALLFVMRTRSKKRRHFQSKVLQK”, for which the “soluble on expression in E. coli” value is “not soluble”.
For the sequence “MNNSLIVRQLGLQDYQEIWHKMQDFTDTRNAETQDEIWLVQHYPVFTQGQAGKPEHLLQRSEIPVVQSVRGGQITYHAPGQQVMYVLIDIKRHKNLNVRQLVTALEQTVVKTLAEYGIESYPKPDAPGVYVDGKKICSLGLRIRRGCSFHGLALNINMDLNPFHYINPCGYAGLEMCQLADFVNQDKADCDNVSAKLIKHFANLLGYNITTLLEHHHHHH”, the “soluble on expression in E. coli” value was “soluble”.
For “MNNSNLAAARNLIQVVTGEWKSRCVYVATRLGLADLIESGIDSDETLAAAVGSDAERIHRLMRLLVAFEIFQGDTRDGYANTPTSHLLRDVEGSFRDMVLFYGEEFHAAWTPACEALLSGTPGFELAFGEDFYSYLKRCPDAGRRFLLAMKASNLAFHEIPRLLDFRGRSFVDVGGGSGELTKAILQAEPSARGVMLDREGSLGVARDNLSSLLAGERVSLVGGDMLQEVPSNGDIYLLSRIIGDLDEAASLRLLGNCREAMAGDGRVVVIERTISASEPSPMSVLWDVHLFMACAGRHRTTEEVVDLLGRGGFAVERIVDLPMETRMIVAARA”, the “soluble on expression in E. coli” value was “soluble”.
For the sequence “MNNVEKAIEALKKGEIILVYDSDEREGETDMVVASQFITPEHIRIMRKDAGGLICTALHPDICNKLGIPFMVDILEFASQKFKVLRELYPNDIPYDEKSSFSITINHRKTFTGITDNDRAFTIKKLAELVKEGRFNDFGKEFRSPGSVTLLRAAEGLVKNRQGHTEMTVALAELANLVPITTICEMMGDDGNAMSKNETKRYAEKHNLIYLSGEEIINYYLDKYLKD”, the “soluble on expression in E. coli” value is reported as “soluble”.
For “MNPLKAGDIAPKFSLPDQDGEQVNLTDFQGQRVLVYFYPKAMTPGCTVQACGLRDNMDELKKAGVDVLGISTDKPEKLSRFAEKELLNFTLLSDEDHQVCEQFGVWGEKSFMGKTYDGIHRISFLIDADGKIEHVFDDFKTSNHHDVVLNWLKEHA”, the “soluble on expression in E. coli” value was “soluble”.
For the sequence “MNQKPTPLMSPPPPAQQNGKDHKEKLHRIEDIMYSDADTFPEFSNRDGSRETVDTCWQLVLIRVPEHPNETHIKTINDAITSEMKATWKIPATSFAYVSAPHIPILQLAYGVAKKHFGEKTAIRSSFMFAEPKNDKFLIAKDSDLKHLKYEVILGASRFCWTKVETHAEMSKRIESTLFELMRVLPNLVLFLGPLAFDVLYETLEMQKRKTIAKPGVVIENFKRENNKWKRVQKHGATSISVPLC”, the “soluble on expression in E. coli” value was “not soluble”.
As for “MNQLLINKHEKFFNRCLIGLPSTAQSEDSNKLAIIYFCLHGLQLIQKFQFTNQELIYYRNFIINQFMIENNQIISFRSTHYFQKTNQKYDCPNLSSTLFALYNLLILKSPYHTIINRKKIMNFLCKCQVKDGINKGGFVPTLYYNEENGDYKQYGEPDLRVCYMALLIRHLMKYDDNNNNNNREDSNETDIDLISLQQFILDRININGGFSSTIMDESHLGFTFCAIASLKLLNYPLEKLKSTKEWLIHRQVDYPENLYPKDGNGDGNGNGDNYEYYRNIDIGGFNGRENKLSDTCYSWWCTGSLYNIDVNFIKLVDLNKAEDYLLNKTQNQLFGGFGRDPDSTPDPMHSYLALASLSLWNHEKFALQEINPILTITKESYQFFKEEIKY”, the “soluble on expression in E. coli” value was “soluble”.
In the case of “MNRDDAPPIPDALSHRQLNRWLETAMQESSTPAKESNDILSAELERWANHTRFLLQRMAHKGDAIGSDRSPQQVMALGSFRTHLMLGLQALKASQPGR”, the “soluble on expression in E. coli” value is “not soluble”.
The same measure for “MNRGVITISESGTVSMPTYTVWMTLQEIADMYNVFGCYVRKAVKAIFKDGILKEQGVRRHVRKNDRISYDVYSLELVIAVAFRIDSIESRAFREFIMQSVIGRQTSRTKLVCIFTENAMA”: “not soluble”; for “MNRICELLGIEHPIISGGMVWCSGWKLASAVSNCGGLGLIGAGSMHPDNLEHHIRSCKAATDKPFGVNVPLLYPEMDKIMEIIMREHVPVVVTSAGSPKVWTAKLKAAGSKVIHV”: “not soluble”; for “MNRKRKWQIPPPSEPVTDEYLTSVTIGERKPLNDRIQLAEYDLRWPSMFSVAADKIRSALSEKALLVEHVGSTSVPGLAAKLIIDMLLGVTDSADEKSYVLPLEQQGFVLQAREPGWYEHRFFRLKSGDMEWHLHVFSAECEEIDRMLAFRNWLRVHDDDRQRYENVKRTLAARTWKHMQNYADAKSDIVREILGRAQDDHVVGITSEAVSAAFRFR”: “not soluble”.
With “MNRLMTLTGAGLALAFSVSIAQAQVVVSSKIDTEGGVLGNIILAVLNQNKIETTDRIQLGATPVVRKAITAGEIDIYPEYTGNAAFFFSKADDPLWKDAAKGYEEAKTLDYDANKIVWLAPSPANNTWAIALRKDVADKNNLKTLSDFGKYVAGGGTVVLAASSEFVNSAAALPAFQTTYGFTMKPDQLITLSGGDTAATIAAAANQTNNANAAMVYGTDGGIAPSGLVVLEDDKHVQPVYQPAPIIREEVLKKHPNIEELLKPVFEKLDLATLQDLNARVQVGGEQAKTVAMDFLTKNGFAK”, the “soluble on expression in E. coli” value is on record as “not soluble”.
Turning to “MNSAVGAELFMGDDGVSLRPGLGGTESVLESWRYIMGKLRVGRFLISSRVNGPGRRFVIWFQGCPIRCRGCLNPEFHDEDGGHLIETARLVDMIRDLRDEIEGVTFTGGEPLAQAMELVKLAGAVKSMGLTVVCFTGYEMDEILKGNIEGGLELLEFVDVLIDGPYIEEKSAPLLWRGSTNQDVYFLTERYAEFRDRVMACSEMEAELKVGADGVYMTGIFDVEFWEELRRRLGDGSLEHHHHHH”, the “soluble on expression in E. coli” value is on record as “not soluble”.

For the origin of these results see the DeepSol protein solubility set.
